From patent US20100322937A1 (published 2010)

What was measured:
[1] = target: T1, Y^246D EGFR (full-length human, FLAG tag) on BaF/3 cells (human, UniProt P00533 25-1210); test: Scatchard, 125I-EGF on BaF/3 cells, Kd2 (low-affinity site)
T1 construct: whole, on cells
Procedure: (§1) Ligand binding to cells expressing the wt or mutant EGFR was determined at room temperature in the presence of the internalization inhibitor phenylarsine oxide (PAO) (29) by cold saturation experiments. […] All experimental points were prepared in triplicate. At the end of the incubation, the cells were pelleted and washed twice in ice-cold PBS before transferring to fresh tubes for counting in a Wallac WIZARD γ-counter (PerkinElmer, Boston, Mass.). Scatchard plots and estimates of ligand binding affinities and receptor numbers were obtained using the Radlig program (BioSoft, Cambridge, UK).
(§2) Data were analyzed using the “Kell for Windows” RadLig program. ^{(a)}Number of receptors per cell were calculated from the Bₘₐₓ and the number of cells/tube in each ligand binding experiment.

[2] = target: T2, V^583D EGFR (full-length human, FLAG tag) on BaF/3 cells (human, UniProt P00533 25-1210); test: as above
T2 construct: whole, on cells
Procedure: as §1, §2

[3] = target: T3, wtEGFR: full-length human EGFR with FLAG tag after the leader, on BaF/3 cells (human, UniProt P00533 25-1210); test: as above
T3 construct: whole, on cells; BaF/3 cells have no endogenous EGF receptors; also called wtEGFR-BaF/3
Procedure: as §1, §2

[4] = target: T4, D^563H EGFR (full-length human, FLAG tag) on BaF/3 cells (human, UniProt P00533 25-1210); test: as above
T4 construct: whole, on cells
Procedure: as §1, §2

[5] = target: T5, E^578C EGFR (full-length human, FLAG tag) on BaF/3 cells (human, UniProt P00533 25-1210); test: as above
T5 construct: whole, on cells
Procedure: as §1, §2

[6] = target: T6, Y^246F EGFR (full-length human, FLAG tag) on BaF/3 cells (human, UniProt P00533 25-1210); test: as above
T6 construct: whole, on cells
Procedure: as §1, §2

[7] = target: T7, Y^246W EGFR (full-length human, FLAG tag) on BaF/3 cells (human, UniProt P00533 25-1210); test: as above
T7 construct: whole, on cells
Procedure: as §1, §2

[8] = target: T8, L^245C/E^578C EGFR (full-length human, FLAG tag) on BaF/3 cells (human, UniProt P00533 25-1210); test: as above
T8 construct: whole, on cells
Procedure: as §1, §2

[9] = target: T2, V^583D EGFR (full-length human, FLAG …); test: Scatchard, 125I-EGF on BaF/3 cells, Kd1 (high-affinity site)
Procedure: as §1, §2

[10] = target: T3, wtEGFR: full-length human EGFR with …; test: as above
Procedure: as §1, §2

[11] = target: T4, D^563H EGFR (full-length human, FLAG …); test: as above
Procedure: as §1, §2

[12] = target: T1, Y^246D EGFR (full-length human, FLAG …); test: Scatchard, 125I-EGF on BaF/3 cells
Procedure: as §1, §2

[13] = target: T2, V^583D EGFR (full-length human, FLAG …); test: Scatchard, 125I-EGF on BaF/3 cells
Procedure: as §1, §2

[14] = target: T3, wtEGFR: full-length human EGFR with …; test: Scatchard, 125I-EGF on BaF/3 cells
Procedure: as §1, §2

[15] = target: T4, D^563H EGFR (full-length human, FLAG …); test: Scatchard, 125I-EGF on BaF/3 cells
Procedure: as §1, §2

[16] = target: T5, E^578C EGFR (full-length human, FLAG …); test: Scatchard, 125I-EGF on BaF/3 cells
Procedure: as §1, §2

[17] = target: T6, Y^246F EGFR (full-length human, FLAG …); test: Scatchard, 125I-EGF on BaF/3 cells
Procedure: as §1, §2

[18] = target: T7, Y^246W EGFR (full-length human, FLAG …); test: Scatchard, 125I-EGF on BaF/3 cells
Procedure: as §1, §2

[19] = target: T8, L^245C/E^578C EGFR (full-length human, …); test: Scatchard, 125I-EGF on BaF/3 cells
Procedure: as §1, §2

[20] = target: T1, Y^246D EGFR (full-length human, FLAG …); test: cell-based or functional assay
[21] = target: T2, V^583D EGFR (full-length human, FLAG …); test: cell-based or functional assay
[22] = target: T3, wtEGFR: full-length human EGFR with …; test: cell-based or functional assay
[23] = target: T4, D^563H EGFR (full-length human, FLAG …); test: cell-based or functional assay
[24] = target: T5, E^578C EGFR (full-length human, FLAG …); test: cell-based or functional assay
[25] = target: T6, Y^246F EGFR (full-length human, FLAG …); test: cell-based or functional assay
[26] = target: T7, Y^246W EGFR (full-length human, FLAG …); test: cell-based or functional assay
[27] = target: T1, Y^246D EGFR (full-length human, FLAG …); test: calculated from Scatchard Kd and Bmax
Procedure: as §1
(§3) The data are representative of at least three separate experiments

[28] = target: T2, V^583D EGFR (full-length human, FLAG …); test: calculated from Scatchard Kd and Bmax
Procedure: as §1, §3

[29] = target: T3, wtEGFR: full-length human EGFR with …; test: calculated from Scatchard Kd and Bmax
Procedure: as §1, §3

[30] = target: T4, D^563H EGFR (full-length human, FLAG …); test: calculated from Scatchard Kd and Bmax
Procedure: as §1, §3

[31] = target: T5, E^578C EGFR (full-length human, FLAG …); test: calculated from Scatchard Kd and Bmax
Procedure: as §1, §3

[32] = target: T6, Y^246F EGFR (full-length human, FLAG …); test: calculated from Scatchard Kd and Bmax
Procedure: as §1, §3

[33] = target: T7, Y^246W EGFR (full-length human, FLAG …); test: calculated from Scatchard Kd and Bmax
Procedure: as §1, §3

B1: Murine EGF, purified from mouse submaxillary glands (ligand, UniProt P01132 977-1029, looked up)
chain: NSYPGCPSSYDGYCLNGGVCMHIESLDSYTCNCVIGYSGDRCQTRDLRWWELR
modifications: iodinated with 125I (Iodogen) as tracer in the Scatchard assays
notes: mature; also called ^125I-EGF
A Kd [1] of 2.1 nM, a Kd [2] of 1.3 nM and a Kd [3] of 1.6 nM were found for B1 in this work. The Kd [4] was 1.7 nM, the Kd [5] was 1.7 nM and the Kd [6] was 2.8 nM. The Kd [7] was 2.5 nM, the Kd [8] was 2.1 nM and the Kd [9] was 0.0026 nM. The Kd [10] was 0.029 nM, the Kd [11] was 0.0176 nM and the “% of sites (Kd2)” value [12] was 100%. For the same binder, the “R/cell (from Bmax)” value [12] was 12000 receptors/cell, the “% of sites (Kd1)” value [13] was 12.6% and the “% of sites (Kd2)” value [13] was 90.8%. The “R/cell (from Bmax)” value [13] was 38000 receptors/cell, the “% of sites (Kd1)” value [14] was 2.6% and the “% of sites (Kd2)” value [14] was 97.5%. For the same binder, the “R/cell (from Bmax)” value [14] was 34000 receptors/cell, the “% of sites (Kd1)” value [15] was 4.4% and the “% of sites (Kd2)” value [15] was 96.4%. For the same binder, the “R/cell (from Bmax)” value [15] was 23000 receptors/cell, the “% of sites (Kd2)” value [16] was 100% and the “R/cell (from Bmax)” value [16] was 34500 receptors/cell. The “% of sites (Kd2)” value [17] was 100%, the “R/cell (from Bmax)” value [17] was 30000 receptors/cell and the “% of sites (Kd2)” value [18] was 100%. The “R/cell (from Bmax)” value [18] was 29000 receptors/cell, the “% of sites (Kd2)” value [19] was 100% and the “% maximal incorporation ([^3H]Thymidine)” value [20] was 0%. The “% maximal incorporation ([^3H]Thymidine)” value [21] was 100%, the “EC50 for EGF ([^3H]Thymidine incorporation)” value (“EC50 for EGF” below) [21] was 0.006 nM and the “% maximal incorporation ([^3H]Thymidine)” value [22] was 100%. For the same binder, the “EC50 for EGF” value [22] was 0.012 nM, the “% maximal incorporation ([^3H]Thymidine)” value [23] was 90% and the “EC50 for EGF” value [23] was 0.005 nM. The “% maximal incorporation ([^3H]Thymidine)” value [24] was 100%, the “EC50 for EGF” value [24] was 0.1 nM and the “% maximal incorporation ([^3H]Thymidine)” value [25] was 16%. For the same binder, the “EC50 for EGF” value [25] was 0.03 nM, the “% maximal incorporation ([^3H]Thymidine)” value [26] was 0% and the “[EGF] at which 500R/cell are occupied” value [27] was 400 pM. For the same binder, the “[EGF] at which 500R/cell are occupied” value [28] was under 1 pM, the “[EGF] at which 500R/cell are occupied” value [29] was 16 pM and the “[EGF] at which 500R/cell are occupied” value [30] was 8 pM. For the same binder, the “[EGF] at which 500R/cell are occupied” value [31] was 80 pM, the “[EGF] at which 500R/cell are occupied” value [32] was 30 pM and the “[EGF] at which 500R/cell are occupied” value [33] was 60 pM.
